Results on 103 substances are retold here after the supplement of paper PMC12042874.

± gives the uncertainty stated by the source.

The nature of this data set: amyloid nucleation score (Sup35N fusion, yeast selection) (log enrichment); library NNK2; higher = more nucleation; inactive = no reads after selection. In a few lines:
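Three technical output replicates were used for random libraries. Psi-negative yeast expressing peptides of 20 random codons fused to Sup35N were induced with 100 μM copper sulfate for 24 hours and grown 7 days at 30°C on medium lacking adenine and uracil, and input and output plasmid inserts were Illumina-sequenced, excluding sequences with under 100 input reads. The nucleation score is the DiMSum log enrichment of output over input reads, centred on the mode score of non-aggregating sequences.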
On to CEEAVSIGLKGYEHVEKSAP, for which the amyloid nucleation score is -0.313 ± 0.76.

VEWKRRNRVRVSRCELWFCF returned an amyloid nucleation score of 3.93 ± 0.087.

In the case of CDGSGCTDFVVCLHK, the amyloid nucleation score was -0.195 ± 0.31.

On to LCGAKRFMRVQAFEQNVYSR, for which the amyloid nucleation score was determined as 0.401 ± 0.37.

As for FWSSCSLEVYRGFSFAH, the amyloid nucleation score is 3 ± 0.083.

In turn, SVWCWDHSILLGFNLCNRKM registered an amyloid nucleation score of 6.648 ± 0.062.

On to LMFLGWASRNLVDKSTFKWI, for which the amyloid nucleation score is -0.843 ± 0.79.

The substance QFRTIHAHYNFFG returned an amyloid nucleation score of 7.68 ± 0.048.

In the case of KWNVFGDDGMREARLNLSGV, the amyloid nucleation score is -0.69 ± 0.74.

Regarding TYIPGLVRTSLCGVA, the amyloid nucleation score is -0.245 ± 0.35.

In the case of MYRISPCVLRGY, the amyloid nucleation score was 0.366 ± 0.34.

As for RVMSVCGSYVNRGEADVVSG, the amyloid nucleation score came out at 0.364 ± 0.18.

In the case of YIVLCYSFRFVFF, the amyloid nucleation score result was “inactive”.

LRWVKKRTAAQN: the amyloid nucleation score is -0.023 ± 0.63.

In the case of CRLFQSQIYERYTSRCVYRF, the amyloid nucleation score is -1.05 ± 0.79.

As for TDCRFIIVYMVIGSFLYTRV, the amyloid nucleation score was -0.747 ± 1.1.

In the case of KVNKCIIRQLDLNMPLASRW, the amyloid nucleation score was determined as 0.584 ± 0.46.

Turning to LDYLDSVSINGIVQFKQMVW, the amyloid nucleation score is -0.285 ± 0.26.

Take DRAWQFPGDRAINGVRSAFF: the amyloid nucleation score is -1.04 ± 0.63.

In the case of VFAWLIVGIWACLFGARIFW, the amyloid nucleation score was -0.291 ± 0.4.

NVCNTNWESVRKAWFSNMMV came in with an amyloid nucleation score of 0.775 ± 0.52.

For the substance NYQIHVRVIRHLMTLGISAQ, the amyloid nucleation score was determined as 0.236 ± 0.35.

In the case of FLRNWGTAWLVGFNSAKFIC, the amyloid nucleation score was -0.955 ± 0.63.

The substance KLVCRMTGCFWVVFIACPYY showed an amyloid nucleation score of 0.175 ± 0.35.

Regarding EAYLDCYRLLFWFLFM, the amyloid nucleation score entry is “inactive”.

In turn, SYHWTGVFGLVHDFGLCCGS had an amyloid nucleation score of 0.425 ± 0.38.

On to LGITITARAIIE, for which the amyloid nucleation score is -0.898 ± 1.1.

Substance SFIWSLMSLIEFPVLYKSVV gave an amyloid nucleation score of 0.067 ± 0.32.

Regarding TNPSSKPAWVTSR, the amyloid nucleation score amounted to 0.007 ± 0.79.

On to EWSVWRSAKWQFQARNGMQG, for which the amyloid nucleation score was determined as 2.05 ± 0.48.

Regarding HYVERWDDAHVFYGWKSDAV, the amyloid nucleation score entry was “inactive”.

In turn, IALKFFH had an amyloid nucleation score of 0.882 ± 0.3.

Take ILGHLYLKIKKLSFVM: the amyloid nucleation score was -0.658 ± 1.

Regarding LSEGCSLSTSVSMT, the amyloid nucleation score was -0.392 ± 0.44.

For the substance DGIDTCGMCL, the amyloid nucleation score is -0.096 ± 0.63.

AFWLL showed an amyloid nucleation score of 1.81 ± 0.093.

As to LQLVMKCRVKCAFLPGGMAW, the amyloid nucleation score was 5.246 ± 0.048.

As to CTPNWRLSSFRWYVLRTFSE, the amyloid nucleation score was determined as 0.052 ± 0.37.

With VANRIMLGSLGMGFVVGSSM, the amyloid nucleation score is -0.033 ± 0.43.

For LRSVKMIRCLNSSLPLNGRG, the amyloid nucleation score came to 0.735 ± 0.12.

For the substance ALTPGYPSGARVP, the amyloid nucleation score was determined as 0.307 ± 0.49.

Consider LCEALRFVIYCKLTSFVPFN, for which the amyloid nucleation score was -0.632 ± 0.61.

As for SNVTTYSNVSYIRHHSHYLG, the amyloid nucleation score turned out to be 1.32 ± 0.44.

For the substance RWCGIGRLGVSNGIVPCWEM, the amyloid nucleation score worked out at 0.647 ± 0.17.

As for LHLFAKSATSLVIVFAQDLI, the amyloid nucleation score is -0.455 ± 0.42.

LAGITWISSTVRDVSYMRRR displayed an amyloid nucleation score of 2.72 ± 0.1.

Regarding YFIGFSSSMNFGYFMRVYRI, the amyloid nucleation score result was “inactive”.

With YSSFDISLYFGNHHWSLMTR, the amyloid nucleation score came out at 4.11 ± 0.078.

With DGSSDRQGVKFFVDTSFLSR, the amyloid nucleation score was -0.593 ± 0.48.

For RKVLWKSDTSSLLNEWSIAH, the amyloid nucleation score was -0.178 ± 0.49.

Take YGPLTIDGFRHAYV: the amyloid nucleation score amounted to 0.95 ± 0.29.

Regarding RYENPLYVCDWGFGASLFRP, the amyloid nucleation score amounted to 0.237 ± 0.22.

For LVDRPGFSVNVD, the amyloid nucleation score was -0.191 ± 0.35.

Take KLGLVKMSPYIMFTHVCDGW: the amyloid nucleation score was -0.217 ± 0.23.

In turn, LQSKAGEPLGRDMRLFLVPV had an amyloid nucleation score of 0.698 ± 0.58.

Take MVNGEVTLGAVCNTYQWACI: the amyloid nucleation score is 2.66 ± 0.15.

Substance SSRVVVLNYATRRGGQVSGR had an amyloid nucleation score of 0.496 ± 0.38.

In the case of INVLFRVSPRISAVRNVCST, the amyloid nucleation score is -0.271 ± 0.36.

Regarding AGSLRR, the amyloid nucleation score came out at 1.51 ± 0.41.

Turning to PFRKDVTLPLIFVLHVLQPD, the amyloid nucleation score was -0.191 ± 0.54.

IGRSMGRTFWR returned an amyloid nucleation score of 1.5 ± 0.18.

Take SHFCN: the amyloid nucleation score came out at 0.859 ± 0.43.

With ENVCCGVGSVYKSMLAAPPW, the amyloid nucleation score came out at 10.23 ± 0.056.

PFFLMISAVISHHNEHRHTM returned an amyloid nucleation score of 5.926 ± 0.058.

Take DSPRRTFIVQASHFTVYLTR: the amyloid nucleation score came to 8.111 ± 0.058.

With YMYILAVLSVSSLIVNYDLK, the amyloid nucleation score entry was “inactive”.

Consider GVGVGLYKFLTPCFYGEDDE, for which the amyloid nucleation score was 0.594 ± 0.57.

Consider LRLVYISTMIQMPFGRRVF, for which the amyloid nucleation score turned out to be 3.73 ± 0.04.

For the substance CNFLQDNVEGVCYNRFKDCL, the amyloid nucleation score was 0.601 ± 0.49.

For the substance SITYTNLMNTLQAIRTSFLA, the amyloid nucleation score was -0.708 ± 1.1.

In turn, RFRFGAVNLV registered an amyloid nucleation score of 0.849 ± 0.49.

Turning to SVGRHS, the amyloid nucleation score is -0.841 ± 0.62.

With FVIVNN, the amyloid nucleation score was -0.658 ± 1.

Turning to HYYIHSFNMYPVGSRLVPYE, the amyloid nucleation score is -0.065 ± 0.42.

For NERYP, the amyloid nucleation score is -0.865 ± 0.33.

MDLLPNSGYGLRSDLRVLAE: the amyloid nucleation score was found to be 3.5 ± 0.097.

In turn, SATRDYHRLWCVVRLLLNAA came in with an amyloid nucleation score of 0.342 ± 0.46.

With YCGRWELAVWY, the amyloid nucleation score was -0.679 ± 1.1.

Take IDHNTSRC: the amyloid nucleation score stood at 0.023 ± 0.76.

On to IMSMGGVLMFWS, for which the amyloid nucleation score amounted to 3.66 ± 0.12.

Turning to YILRMLLRVLSVCVCSLQRS, the amyloid nucleation score is -0.091 ± 0.79.

On to MMYISSGVFWTE, for which the amyloid nucleation score result was “inactive”.

With TSSMTNERDNLILV, the amyloid nucleation score is -0.187 ± 0.42.

Substance NWKWVRSKVAWPMRSEHHVE returned an amyloid nucleation score of 1.65 ± 0.21.

As for MSRSVVESQMVLSDDFWHQG, the amyloid nucleation score was -0.41 ± 0.22.

Consider HLSCKVIENGLWTSFCFKQE, for which the amyloid nucleation score was -1.04 ± 0.54.

Substance LVSNHASYFIQI registered an amyloid nucleation score of 7.467 ± 0.035.

HWFNSTRK: the amyloid nucleation score stood at 0.187 ± 0.36.

As for THVRVEVLS, the amyloid nucleation score entry is “inactive”.

On to QFDTPNTT, for which the amyloid nucleation score is -0.169 ± 0.54.

As for MSMLNRALGILKSTFMINRR, the amyloid nucleation score was -0.058 ± 0.53.

As to QRMTNMSF, the amyloid nucleation score is -1.27 ± 1.

Take VHLSLGGNIGLDGLQMVGVL: the amyloid nucleation score result was “inactive”.

In the case of TFVGSFEILAGNVLCVNKTK, the amyloid nucleation score was determined as 6.031 ± 0.048.

Regarding RERDNVMDIVGSAMRDCCQF, the amyloid nucleation score was 0.282 ± 0.25.

In the case of DSRCDRAPDCGMNHCIYILC, the amyloid nucleation score came out at 6.76 ± 0.082.

In the case of YIIIYLTRHTGVRDVYVSGG, the amyloid nucleation score is -0.79 ± 1.

FRGIGWAC showed an amyloid nucleation score of 0.907 ± 0.47.

In the case of NVTQMRGSDISLLRMFESNY, the amyloid nucleation score was found to be 0.454 ± 0.45.

Turning to VWHLLRKSFSFR, the amyloid nucleation score amounted to 0.619 ± 0.8.

For the substance IVLLINRYMILMGEPNHA, the amyloid nucleation score was determined as 0.17 ± 0.35.

As for FDYFF, the amyloid nucleation score entry was “inactive”.

VTYDCL: the amyloid nucleation score entry is “inactive”.
